From US10029000B2, “Uses of IL-12 in hematopoiesis” (University of Southern California, priority 2003, dated 2018) come the findings set out here.

Entries after “also recorded” stand apart in the source; their conditions may differ.

What all share (format): in vivo, mice
Assay [1] concerns bone marrow. Nature of the assay: Bone marrow histology (H&E) after lethal dose radiation. The conditions noted are these: 5 ug/kg. The procedure: At different time post IL-12 treatment (5 ug/kg) and lethal dose radiation (1, 12 and 14 days), femurs were isolated, fixed in 10% formalin, decalcified and processed for paraffin section and for Hematoxylin & Eosin staining. FIG. 2A: 1 day post radiation; FIG. 2B: 12 days post radiation; FIG. 2C: 14 days post radiation. […] (200× magnification)
To determine if IL-112 sensitizes intestinal tract to ionizing radiation, two different doses of IL-12 and radiation were used in radioprotection assay, namely 5 ug/kg and 50 ug/kg of IL-12 and two different doses of radiation were also used. Subsequent to the administration of IL-12 and radiation, both bone marrow and the small intestine were removed from mice who received either 5 ug/kg or 50 ug/kg of IL-12 and a lethal dose radiation for histology study. The lethal doses were either 1000 rad or 1600 rad.
Mice were treated with IL-12 (100 ng/mouse) or PBS 24 hours before receiving lethal irradiation. At different days after lethal irradiation, femurs, spleens and small intestines were removed and fixed in 10% formalin buffer for 24 hours. Subsequently, bone marrow was decalcified in Rapid Decalcifier for about 30 minutes. Samples and tissues then were embedded in TissuePrep 2 paraffin wax for micro-section at 5 μm for routine Hematoxylin and Eosin staining. Some small intestines were treated with PAS (Periodic Acid Schiff) staining.

The test system of assay [2] is bone marrow progenitor cells. Nature of the assay: Colony forming cell assay (CFC assay) of bone marrow after lethal irradiation. Here is the method:
(§1) To determine the bone marrow cell subsets that are protected by IL-12 administration for the rescue phenomena, CFC and CFU-S12 assay were performed at different time post lethal dose radiation. Bone marrow cells were recovered from IL-12 treated or control animals immediately (day 0), or at day 7, 9, 10, 12, 14 and 21 post radiation for CFC and CFU-S12 assay. If progenitor cells are protected from IL-12 treatment (IL-12 was administered in this study at 24 hours before radiation), CFC and CFU-S12 colonies should be detected when cells were removed at day 0. However, bone marrow cells isolated at day 0, 7 post radiation give rise no CFC nor CFU-S12 colonies in both IL-12 treated and control animals. At day 10 post radiation, the bone marrow cells isolated from IL-12 treated mice start to give rise of CFU-S12 but no detectable CFC, which start to appear from IL-112 treated bone marrow isolated 12 days post radiation and fully recovered from bone marrow cells isolated 14 days post radiation, as shown in FIGS. 5A and 5B. […] The CFU-S12 colony forming cells and CFC cells at day 10 and day 14 post radiation may be derived from long-term repopulating stem cells rescued by IL-12 treatment.
FIG. 5A: Isolated bone marrow cells were plated in methycellulose plates for 12 days to detect colony formation. Bone marrow cells from normal mice were used as control for the assay system. […] In contract, there is no recovery of CFC cell activity from control mice bone marrow cells.
24 hours before lethal irradiation, mice were i.v. treated with IL-12 (100 ng/mouse) and bone marrow cells were isolated from these mice at different days after lethal irradiation. For CFU assay, 2×10^5 bone marrow cells were thoroughly mixed into 1 ml methylcellulose medium MethCult GF M3434 from StemCell Technologies Inc (Vancouver, BC) and cultured into 35 mm dishes. Each sample was duplicated. After 12 days culture, colonies (>50 cells) were counted under microscope.

The test system of assay [3] is short-term hematopoietic stem cells (ST-HSCs). Description: Colony forming units spleen day 12 assay (CFU-S12). The procedure: as §1, with “treatment. […]” for “treatment.”
For the CFU-spleen12 assay, 2×10^5 bone marrow cells as donors were transplanted into recipient mice which received lethal irradiation. […] Spleen colonies were counted.

Assay [4] concerns bone marrow cells. Description: Cell cycle analysis with propidium iodide staining. To be noted: 24 hours post IL-12 administration; control 10%, p<0.05. Here is the method: (§2) It is believed that cells at S phase are more resistant to radiation. Both Brd-U incoperation and cell cycling analysis were performed to determine if IL-12 can stimulate bone marrow cell proliferation. In IL-12 treated mice, there are more bone marrow cells in S phase compared with control animals (12% vs 10%, p<0.05). Furthermore, there are more BrdU positive cells in IL-12 treated bone marrow compared with control animals (17% vs 8%, p<0.05).
(§3) 24 hours post IL-12 administration (10 ng/mouse), bone marrow cells were isolated for BrdU incooperation assay (FIG. 7A).
For the cell cycling assay, IL-12 (100 ng/mouse) or PBS was intravenously injected into mice. 24 hours after injection, whole bone marrow cells were flushed from femurs and treated with lysis buffer to destroy red blood cells. After washing in PBS and fixing in −20° C. pure ethanol for at least 1 hour, about 5×10^5 bone marrow cells were treated with RNase A (20 ng/ul final concentration) at 37° C. for 30 minutes, then stained with propidium iodide (100 ng/ul final concentration) from Sigma (St Louis, Mo.) at room temperature for 15 to 30 minutes and then processed directly for cell cycling analysis using fluorescence activated cell sorting (FACS).

The test system of assay [5] is bone marrow cells. Description: BrdU incorporation assay. To be noted: 24 hours post IL-12 administration (10 ng/mouse); control 8%. Here is the method: as §2, §3
For the BrdU assay, IL-12 (10 ng/mouse) or PBS was intravenously injected into mice. 21 hours after injection, mice were i.p. injected with 5-Bromo-2′-deoxyuridine (BrdU from Sigma) at 50 mg/kg dosage. 3 hours after BrdU injection, mice were sacrificed and whole bone marrow cells were isolated from femurs and treated with lysis buffer to destroy red blood cells. Bone marrow cells were dispersed on a slide by cytospin for the proliferation assay using BrdU immunohistochemistry system kit purchased from Oncogene Research Products (Boston, Mass.)

Setting [6] is: lethal radiation, IL-12 24 hours before radiation.

B1: IL-12: Recombinant murine interleukin 12, heterodimeric cytokine (p35+p40), purchased from R&D Systems or PeproTech (protein, UniProt P43431 23-215; P43432 23-335, looked up)
Interleukin-12 subunit alpha: RVIPVSGPARCLSQSRNLLKTTDDMVKTAREKLKHYSCTAEDIDHEDITRDQTSTLKTCLPLELHKNESCLATRETSSTTRGSCLPPQKTSLMMTLCLGSIYEDLKMYQTEFQAINAALQNHNHQQIILDKGMLVAIDELMQSLNHNGETLRQKPPVGEADPYRVKMKLCILLHAFSTRVVTINRVMGYLSSA
Interleukin-12 subunit beta: MWELEKDVYVVEVDWTPDAPGETVNLTCDTPEEDDITWTSDQRHGVIGSGKTLTITVKEFLDAGQYTCHKGGETLSHSHLLLHKKENGIWSTEILKNFKNKTFLKCEAPNYSGRFTCSWLVQRNMDLKFNIKSSSSSPDSRAVTCGMASLSAEKVTLDQRDYEKYSVSCQEDVTCPTAEETLPIELALEARQQNKYENYSTSFFIRDIIKPDPPKNLQMKPLKNSQVEVSWEYPDSWSTPHSYFSLKFFVRIQRKKEKMKETEEGCNQKGAFLVEKTSTEVQCKGGNVCVQAQDRYYNSSCSKWACVPCRVRS
With B1, the “bone marrow cellularity versus control” value in assay [1] (day 1 post lethal radiation) is recorded as “significant higher cellularity”. Further, the “bone marrow histological structure versus control” value in assay [1] (day 7 and day 10 post radiation) was “no significant difference”. Besides, the bone marrow colonies entry in assay [1] (day 12 post radiation) is given as “colonies were observed”. Further, the bone marrow recovery entry in assay [1] (day 14 post radiation) is on record as “full recovery of bone marrow cellularity; also recorded: significant regeneration”. Further, the CFC activity result was “low level CFC cell activity” in assay [2] (day 12 post lethal radiation) and “no detectable CFC activity” in assay [2] (first 9 days post lethal radiation, IL-12 24 hours before radiation). Moreover, the “time of full recovery of CFC activity” value in assay [2] (setting [6]) is “about 14 days post radiation”. The CFU-S12 activity entry in assay [3] (cells isolated the first 7 days post lethal radiation) was “did not give rise of CFU-S12”. Further, the “time of full recovered CFU-S12 activity” value in assay [3] (setting [6]) was determined as 10 days post radiation. The “bone marrow cells in S phase” value in assay [4] amounted to 12%. Moreover, the “BrdU positive cells in bone marrow” value in assay [5] is reported as 17%.
